Test results: patent publication US20220056104A1 (Janssen / Centocor, published 2022)
Read-outs that look alike come from different tables or passages of the source. Values belong to the binder of their own block, whether it stands above or below them.

What was measured:
[1] = molecular target: T1, Recombinant DR3-Fc (R&D Systems, cat. #943-D3) (UniProt Q93038 25-199, limits assumed); experiment: ELISA, DR3-Fc immobilized
T1 construct: dimeric MW~92 kDa; also called DR3 receptor; Fc-DR3; not shown: Fc part of the bought fusion
T1 sequence (looked up): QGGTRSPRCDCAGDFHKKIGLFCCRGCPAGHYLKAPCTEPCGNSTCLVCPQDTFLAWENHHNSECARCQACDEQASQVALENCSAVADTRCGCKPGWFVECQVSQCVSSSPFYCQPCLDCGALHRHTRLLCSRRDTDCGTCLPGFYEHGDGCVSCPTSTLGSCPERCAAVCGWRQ
Method: (§1) All ELISA-based measurements were collected in triplicate, and error values report the standard error between measurements. Recombinant DR3-Fc (R&D Systems, cat. #943-D3), dimeric MW˜92 kDa, was non-specifically immobilized onto plates (Nunc maxisorp, cat. #436110) in 100 μL DR3-Fc, diluted to 10 μg/mL onto a 96-well White Maxisorp plate (Nunc, cat #436110) (O/N, 4° C.). Plates were block for 1 hour at room temperature with 250 μl/well of casein buffer and blocking buffer was removed. 50 μL of TL1A variants were diluted in StartingBlock PBS (Thermo Fisher Scientific), at 25 μg/mL, diluting 3× over each well, according to the plate map description for 20160623) per well on a 96-well White Maxisorp plate (Nunc, cat #: 436110) (overnight at 4° C.).
(§2) Plates were washed three times with TBST. 100 μl/well polyclonal rabbit anti-human TL1A-biotin antibody (diluted 1:1000 in Starting Block PBS) was added and plates were incubated for 1 hour at room temperature with shaking at 150 rpm. TL1A-biotin antibody was removed and 100 μl/well streptavidin-HRP conjugate (diluted 1:10,000 in Starting Block PBS) was added to plates. […] 100 μl/well POD Chemiluminescence substrate (Roche, cat #: 11582950001) was added immediately prior to reading plate luminescence using a Molecular Devices M5 plate reader with a delay setting of 100 ms.

[2] = molecular target: T1, Recombinant DR3-Fc (R&D Systems, cat. …); experiment: ELISA
[3] = molecular target: T2, DcR3 (UniProt O95407 30-300, limits assumed); experiment: ELISA, DcR3
T2 construct: the construct is not described; also called decoy receptor DcR3; TNFRSF6B
T2 sequence (looked up): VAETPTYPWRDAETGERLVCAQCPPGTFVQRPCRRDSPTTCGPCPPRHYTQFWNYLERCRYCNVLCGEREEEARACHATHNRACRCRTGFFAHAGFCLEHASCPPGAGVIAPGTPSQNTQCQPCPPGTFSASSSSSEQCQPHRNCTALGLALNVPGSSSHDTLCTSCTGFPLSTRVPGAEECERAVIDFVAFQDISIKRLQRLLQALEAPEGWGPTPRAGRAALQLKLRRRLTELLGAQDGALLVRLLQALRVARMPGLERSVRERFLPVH

[4] = molecular target: T2, DcR3; experiment: ELISA, DcR3; remark: listed apart in the source
[5] = molecular target: T1, Recombinant DR3-Fc (R&D Systems, cat. …); experiment: ELISA, DR3-Fc immobilized; remark: listed apart in the source
Procedure, shortened: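 DR3-Fc (10 μg/mL) was coated overnight at 4 °C, blocked with casein, then incubated overnight at 4 °C with TL1A variants from 25 μg/mL in 3-fold dilutions. Bound TL1A was detected with biotinylated rabbit anti-human TL1A and streptavidin-HRP, read by chemiluminescence; triplicates, errors as standard error.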

[6] = molecular target: T1, Recombinant DR3-Fc (R&D Systems, cat. …); experiment: ELISA, TL1A construct immobilized, DR3 titrated
[7] = molecular target: T1, Recombinant DR3-Fc (R&D Systems, cat. …); experiment: ELISA, DR3-Fc immobilized; remark: listed apart in the source
Method: as §1
Plates were washed three times with TBST. 100 μl/well polyclonal rabbit anti-human TL1A-biotin antibody (diluted 1:1000 in Starting Block PBS) was added and plates were incubated for 1 hour at room temperature with shaking at 150 rpm. TL1A-biotin antibody was removed and 100 μl/well streptavidin-HRP conjugate (diluted 1:10,000 in Starting Block PBS) was added to plates. Plates were incubated for 1 hour at room temperature with shaking at 150 rpm. Plates were washed three times with TBST. 100 μl/well POD Chemiluminescence substrate (Roche, cat #: 11582950001) was added immediately prior to reading plate luminescence using a Molecular Devices M5 plate reader with a delay setting of 100 ms.
These combination mutants were tested for binding to DR3 and DcR3 (FIGS. 5E and 5F, respectively).

[8] = molecular target: T1, Recombinant DR3-Fc (R&D Systems, cat. …); experiment: ELISA (FIG. 4C)
Method: as §1, §2

B2: TL1W2 (His-TEV-hTL1A 72-251) (ligand)
chain: HHHHHHENLYFQGLKGQEFAPSHQQVYAPLRADGDKPRAHLTVVRQTPTQHFKNQFPALHWEHELGLAFTKNRMNYTNKFLLIPESGDYFIYSQVTFRGMTSECSEIRQAGRPNKPDSITVVITKVTDSYPEPTQLLMGTKSVCEVGSNWFQPIYLGAMFSLQEGDKLMVNVSDISLVDYTKEDKTFFGAFLL
notes: Non-covalent trimer; entry holds the His-TEV tag; also called His-TL1A; His-TL1A (TL1W2)
- EC50 [3]: 4.6 nM
- Rel EC50 [3]: 1 ratio (head: nM)
- EC50 [1]: 6.8 nM
- EC50 [4]: 4.6 nM
- Rel EC50 [4]: 1 ratio
- EC50 [5]: 26.2 nM
- Rel EC50 [5]: 1 ratio (head: nM)
- EC50 [6]: 2.5 nM
- EC50 [7]: 26.2 nM
- Rel EC50 [7]: 1 ratio

B4: TL1W34 (C162S, C202S) (ligand)
chain: HHHHHHENLYFQGLKGQEFAPSHQQVYAPLRADGDKPRAHLTVVRQTPTQHFKNQFPALHWEHELGLAFTKNRMNYTNKFLLIPESGDYFIYSQVTFRGMTSESSEIRQAGRPNKPDSITVVITKVTDSYPEPTQLLMGTKSVSEVGSNWFQPIYLGAMFSLQEGDKLMVNVSDISLVDYTKEDKTFFGAFLL
notes: also called TL1A-C162S, C202S; C162S, C202S TL1A variant
- binding result [8]: no binding

More lines, now with the values ahead:

- EC50 [1]: 27.3 nM
- fold weaker EC50 than other molecules [2]: ~3 fold
B1: TL1W19 (His-TEV-TL1A-TL1A-TL1A) (ligand)
chain: HHHHHHENLYFQGAPLRADGDKPRAHLTVVRQTPTQHFKNQFPALHWEHELGLAFTKNRMNYTNKFLLIPESGDYFIYSQVTFRGMTSECSEIRQAGRPNKPDSITVVITKVTDSYPEPTQLLMGTKSVCEVGSNWFQPIYLGAMFSLQEGDKLMVNVSDISLVDYTKEDKTFFGAFLLAPLRADGDKPRAHLTVVRQTPTQHFKNQFPALHWEHELGLAFTKNRMNYTNKFLLIPESGDYFIYSQVTFRGMTSECSEIRQAGRPNKPDSITVVITKVTDSYPEPTQLLMGTKSVCEVGSNWFQPIYLGAMFSLQEGDKLMVNVSDISLVDYTKEDKTFFGAFLLAPLRADGDKPRAHLTVVRQTPTQHFKNQFPALHWEHELGLAFTKNRMNYTNKFLLIPESGDYFIYSQVTFRGMTSECSEIRQAGRPNKPDSITVVITKVTDSYPEPTQLLMGTKSVCEVGSNWFQPIYLGAMFSLQEGDKLMVNVSDISLVDYTKEDKTFFGAFLL
notes: Single-chain trimer, three TL1A copies in one chain; also called His-scTL1A; His-scTL1A (TL1W19)

- binding result [8]: no binding
B3: TL1W35 (C202S) (ligand)
chain: HHHHHHENLYFQGLKGQEFAPSHQQVYAPLRADGDKPRAHLTVVRQTPTQHFKNQFPALHWEHELGLAFTKNRMNYTNKFLLIPESGDYFIYSQVTFRGMTSECSEIRQAGRPNKPDSITVVITKVTDSYPEPTQLLMGTKSVSEVGSNWFQPIYLGAMFSLQEGDKLMVNVSDISLVDYTKEDKTFFGAFLL
